Test results taken from the supplement of paper PMC9116672.
± gives the standard deviation of the averaged measurements or the uncertainty stated by the source.

Legend:
[1] = duplex formation enthalpy ΔH (Van't Hoff fit of HRM Tm); higher = less exothermic duplex formation; conditions: temperature for dG: 50 °C, NaCl: 500 mM (unadjusted)
Method in brief: (§1)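 On a LightCycler96, DNA duplexes were melted from 37 to 97°C at 0.1°C/s in 1× NNE buffer (500 mM NaCl, pH 7.0) containing 1× EvaGreen, at 1–20 μM with four replicates, after 1:1 annealing of phosphodiester or mixed Rp/Sp phosphorothioate strands. Thermodynamic values (enthalpy, entropy and free energy) derive from linear Van't Hoff regression of 1/Tm (Tm: peak of -dF/dT) versus ln(CT/4), are not salt-adjusted, and carry fit standard deviations as errors. Free energy is extrapolated to 50°C.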

[2] = duplex formation free energy ΔG50 (Van't Hoff fit of HRM Tm); higher = less stable duplex; conditions: temperature for dG: 50 °C, NaCl: 500 mM (unadjusted)
Method in brief: as §1

[3] = duplex melting temperature (HRM, EvaGreen); higher = more stable duplex
Method in brief: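 Complementary DNA strands, either phosphodiester or phosphorothioate (Rp/Sp mixtures), were annealed 1:1 at 25 μM and diluted to 1–20 μM duplex in NNE buffer (500 mM NaCl, pH 7.0) containing 1× EvaGreen. Fluorescence at 470/514 nm was recorded on a LightCycler96 during heating from 37°C to 97°C at 0.1°C/s. The instrument software took the melting temperature as the peak of the negative dF/dT curve. Of four replicates, any without a clear peak were dropped and the remainder averaged.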

[4] = duplex formation entropy ΔS (Van't Hoff fit of HRM Tm); higher = smaller entropy loss on duplex formation; conditions: temperature for dG: 50 °C, NaCl: 500 mM (unadjusted)
Method in brief: as §1

[5] = backbone: PO-PO (both strands phosphodiester DNA)
[6] = backbone: PS-PO (listed strand fully phosphorothioate, complement phosphodiester)
[7] = backbone: PS-PS (both strands fully phosphorothioate)
[8] = duplex concentration 1 µM, backbone: PS-PS (both strands fully phosphorothioate)
[9] = duplex concentration 2.5 µM, backbone: PS-PO (listed strand fully phosphorothioate, complement phosphodiester)
[10] = duplex concentration 2.5 µM, backbone: PS-PS (both strands fully phosphorothioate)
[11] = duplex concentration 5 µM, backbone: PO-PO (both strands phosphodiester DNA)
[12] = duplex concentration 5 µM, backbone: PS-PO (listed strand fully phosphorothioate, complement phosphodiester)
[13] = duplex concentration 5 µM, backbone: PS-PS (both strands fully phosphorothioate)
[14] = duplex concentration 7.5 µM, backbone: PO-PO (both strands phosphodiester DNA)
[15] = duplex concentration 7.5 µM, backbone: PS-PO (listed strand fully phosphorothioate, complement phosphodiester)
[16] = duplex concentration 7.5 µM, backbone: PS-PS (both strands fully phosphorothioate)
[17] = duplex concentration 10 µM, backbone: PO-PO (both strands phosphodiester DNA)
[18] = duplex concentration 10 µM, backbone: PS-PO (listed strand fully phosphorothioate, complement phosphodiester)
[19] = duplex concentration 10 µM, backbone: PS-PS (both strands fully phosphorothioate)
[20] = duplex concentration 15 µM, backbone: PO-PO (both strands phosphodiester DNA)
[21] = duplex concentration 15 µM, backbone: PS-PO (listed strand fully phosphorothioate, complement phosphodiester)
[22] = duplex concentration 15 µM, backbone: PS-PS (both strands fully phosphorothioate)
[23] = duplex concentration 20 µM, backbone: PO-PO (both strands phosphodiester DNA)
[24] = duplex concentration 20 µM, backbone: PS-PO (listed strand fully phosphorothioate, complement phosphodiester)
[25] = duplex concentration 20 µM, backbone: PS-PS (both strands fully phosphorothioate)
[26] = duplex concentration 1 µM, backbone: PO-PO (both strands phosphodiester DNA)
[27] = duplex concentration 1 µM, backbone: PS-PO (listed strand fully phosphorothioate, complement phosphodiester)
[28] = duplex concentration 2.5 µM, backbone: PO-PO (both strands phosphodiester DNA)

Row | Sequence | duplex formation enthalpy ΔH [1, 5] [kJ/mol] | duplex formation enthalpy ΔH [1, 6] [kJ/mol] | duplex formation enthalpy ΔH [1, 7] [kJ/mol] | duplex formation free energy ΔG50 [2, 5] [kJ/mol] | duplex formation free energy ΔG50 [2, 6] [kJ/mol] | duplex formation free energy ΔG50 [2, 7] [kJ/mol] | duplex melting temperature [3, 8] [°C] | duplex melting temperature [3, 9] [°C] | duplex melting temperature [3, 10] [°C] | duplex melting temperature [3, 11] [°C] | duplex melting temperature [3, 12] [°C] | duplex melting temperature [3, 13] [°C] | duplex melting temperature [3, 14] [°C] | duplex melting temperature [3, 15] [°C] | duplex melting temperature [3, 16] [°C] | duplex melting temperature [3, 17] [°C] | duplex melting temperature [3, 18] [°C] | duplex melting temperature [3, 19] [°C] | duplex melting temperature [3, 20] [°C] | duplex melting temperature [3, 21] [°C] | duplex melting temperature [3, 22] [°C] | duplex melting temperature [3, 23] [°C] | duplex melting temperature [3, 24] [°C] | duplex melting temperature [3, 25] [°C] | duplex formation entropy ΔS [4, 5] [cal/mol/K] | duplex formation entropy ΔS [4, 6] [cal/mol/K] | duplex formation entropy ΔS [4, 7] [cal/mol/K] | duplex melting temperature [3, 26] [°C] | duplex melting temperature [3, 27] [°C] | duplex melting temperature [3, 28] [°C]
1 | TTCGCGGTCTCCATTA | -248 ± 17.6 | -273 ± 8.79 | -255 ± 12.6 | -50.2 ± 1.09 | -47.01 ± 0.381 | -42.59 ± 0.351 | 51.49 ± 0.12 | 60.46 ± 0.26 | 55.69 ± 0.27 | 68.99 ± 0.35 | 62.978 ± 0.054 | 58.1 ± 0.25 | 70.45 ± 0.55 | 64.448 ± 0.036 | 59.57 ± 0.46 | 71.62 ± 0.38 | 65.33 ± 0.18 | 60.56 ± 0.28 | 73.14 ± 0.38 | 66.71 ± 0.2 | 61.77 ± 0.089 | 74.63 ± 0.43 | 67.75 ± 0.63 | 62.58 ± 0.18 | -146 ± 12 | -167 ± 6.1 | -157 ± 8.9 | – | – | –
2 | CTTTTGTGCGGGTAGC | -294 ± 15.5 | -284 ± 10 | -251 ± 10.5 | -52.2 ± 0.879 | -46.31 ± 0.397 | -40.14 ± 0.205 | 48.71 ± 0.41 | 59.24 ± 0.32 | 52.48 ± 0.25 | 68.14 ± 0.14 | 61.53 ± 0.35 | 55.08 ± 0.22 | 69.35 ± 0.31 | 62.94 ± 0.29 | 56.37 ± 0.13 | 70.49 ± 0.15 | 63.93 ± 0.083 | 57.22 ± 0.12 | 71.94 ± 0.13 | 65.13 ± 0.068 | 58.45 ± 0.21 | 73.2 ± 0.36 | 65.98 ± 0.35 | 59.6 ± 0.74 | -179 ± 11 | -176 ± 7.2 | -156 ± 7.6 | 63.84 ± 0.57 | 56.1 | 65.75 ± 0.34
3 | GATGCCGCAGCGACCTG | – | -317 ± 8.79 | -325 ± 5.44 | – | -56.8 ± 0.586 | -51.97 ± 0.272 | 61.35 ± 0.33 | 69.756 ± 0.045 | 64.23 ± 0.086 | 78.68 ± 0.64 | 72.16 ± 0.23 | 66.19 ± 0.1 | 80.46 ± 0.37 | 73.33 ± 0.28 | 67.4 ± 0.078 | 81.03 ± 0.31 | 74.43 ± 0.15 | 68.25 ± 0.097 | 82.09 ± 0.41 | 75.63 ± 0.13 | 69.34 ± 0.12 | 82.88 ± 0.26 | 76.48 ± 0.17 | 70.24 ± 0.13 | – | -192 ± 5.9 | -202 ± 3.8 | – | 67.1 | 76.6 ± 1.4
4 | TCTCGCGGTTCCATTA | -257 ± 10 | -269 ± 7.11 | -248 ± 12.1 | -50.8 ± 0.586 | -45.97 ± 0.293 | -41.65 ± 0.31 | 50.4 ± 1.6 | 59.34 ± 0.38 | 54.64 ± 0.23 | 68.7 ± 0.86 | 61.95 ± 0.17 | 57.28 ± 0.084 | 70.24 ± 0.58 | 63.21 ± 0.18 | 58.48 ± 0.13 | 71.59 ± 0.45 | 64.2 ± 0.12 | 59.42 ± 0.15 | 73.26 ± 0.38 | 65.517 ± 0.063 | 60.81 ± 0.1 | 74.35 ± 0.18 | 66.61 ± 0.15 | 61.53 ± 0.15 | -152 ± 7 | -165 ± 5.2 | -153 ± 8.8 | 62.7 ± 1.2 | 56.3 | 67.08 ± 0.63
5 | TATTCTGCCAATGGAAC | -334 ± 9.2 | -315 ± 8.37 | -292 ± 9.2 | -51.99 ± 0.46 | -44.3 ± 0.247 | -36.63 ± 0.0837 | 45.3 ± 0.74 | 56.19 ± 0.12 | 48.29 ± 0.081 | 65.46 ± 0.21 | 58.32 ± 0.085 | 50.06 ± 0.16 | 66.751 ± 0.054 | 59.47 ± 0.085 | 51.303 ± 0.046 | 67.63 ± 0.082 | 60.21 ± 0.12 | 52.24 ± 0.13 | 68.883 ± 0.048 | 61.27 ± 0.062 | 53.39 ± 0.22 | 69.87 ± 0.1 | 62.27 ± 0.081 | 54.28 ± 0.14 | -209 ± 6.6 | -200 ± 6.1 | -189 ± 6.7 | 61.28 ± 0.28 | 52.9 | 63.72 ± 0.46
6 | GAGGCAGCCGCGACCTG | – | -329 ± 14.6 | -321 ± 5.86 | – | -59.7 ± 1.13 | -53.87 ± 0.326 | 63.68 ± 0.2 | 72.02 ± 0.12 | 66.28 ± 0.29 | 81.39 ± 0.49 | 74.37 ± 0.34 | 68.52 ± 0.17 | 82.28 ± 0.58 | 75.9 ± 0.24 | 69.83 ± 0.094 | 82.97 ± 0.38 | 76.878 ± 0.05 | 70.65 ± 0.094 | 83.76 ± 0.16 | 77.946 ± 0.052 | 71.79 ± 0.097 | 84.53 ± 0.52 | 78.61 ± 0.15 | 72.633 ± 0.05 | – | -199 ± 10 | -198 ± 4 | – | – | 79.56 ± 0.14
7 | AACGAATGTCAGCAATT | -311 ± 11.7 | -312 ± 4.6 | -287 ± 7.95 | -52.1 ± 0.628 | -46.23 ± 0.163 | -38.35 ± 0.0962 | 47.1 ± 0.49 | 58.37 ± 0.15 | 49.91 ± 0.19 | 66.97 ± 0.37 | 60.36 ± 0.23 | 52.27 ± 0.13 | 68.1 ± 0.45 | 61.59 ± 0.21 | 53.4 ± 0.093 | 69.1 ± 0.15 | 62.44 ± 0.15 | 54.261 ± 0.011 | 70.52 ± 0.15 | 63.69 ± 0.16 | 55.38 ± 0.048 | 71.52 ± 0.29 | 64.46 ± 0.11 | 56.34 ± 0.12 | -192 ± 8.3 | -197 ± 3.4 | -184 ± 5.7 | 62.43 ± 0.59 | 55.7 ± 0.6 | 64.93 ± 0.41
8 | GAGCAGAAGGGGTTGT | -286 ± 12.1 | -297 ± 5.02 | -267 ± 12.1 | -52 ± 0.711 | -48.05 ± 0.209 | -41.1 ± 0.264 | 49.7 ± 0.9 | 60.88 ± 0.2 | 53.7 ± 0.54 | 68.16 ± 0.65 | 63.08 ± 0.15 | 55.97 ± 0.26 | 69.5 ± 0.73 | 64.37 ± 0.09 | 57.22 ± 0.19 | 70.88 ± 0.2 | 65.29 ± 0.073 | 57.97 ± 0.097 | 72.362 ± 0.008 | 66.57 ± 0.019 | 59.215 ± 0.054 | 73.62 ± 0.15 | 67.52 ± 0.11 | 60.08 ± 0.23 | -173 ± 8.6 | -184 ± 3.5 | -167 ± 8.8 | 63.5 ± 1.7 | 58.19 ± 0.23 | 66.19 ± 0.54
9 | GTCATTGTGCTTTTGC | -328 ± 7.95 | -292 ± 9.2 | -334 ± 14.6 | -51.35 ± 0.402 | -41 ± 0.18 | -35.28 ± 0.117 | 45.054 ± 0.018 | 52.96 ± 0.069 | 46.77 ± 0.14 | 65.29 ± 0.25 | 55.24 ± 0.19 | 48.65 ± 0.052 | 66.35 ± 0.14 | 56.46 ± 0.16 | 49.65 ± 0.053 | 67.27 ± 0.084 | 57.2 ± 0.17 | 50.58 ± 0.096 | 68.53 ± 0.17 | 58.37 ± 0.089 | 51.65 ± 0.14 | 69.4 ± 0.17 | 59.15 ± 0.096 | 52.76 ± 0.13 | -205 ± 5.7 | -186 ± 6.7 | -221 ± 11 | 60.6 | 49.8 ± 0.38 | 63.26 ± 0.54
